Assay results: patent US20220380734A1, “SYSTEMS AND METHODS FOR LUNG CELL EXPANSION AND DIFFERENTIATION” (DUKE UNIVERSITY, priority 2019, published 2022)

Assays:
human alveolospheres = assay: Human alveolosphere culture with human IL-1β; assay type: cell-based; settings: three donors, hIL-1β removed at day 7, cultured additional 7-15 days
Method: For human alveolosphere culture, HTII-280^+ human AT2s (1-3×10^3) were resuspended in scrum free medium and mixed with an equal amount of Matrigel and plated in 6 well plates. For detailed mouse and human serum-free, feeder-free (SFFF) media composition, see Table 1 and Table 2.
The impact of human IL-1β was also tested in human alveolosphere culture. Human IL-1β was removed from medium containing human alveolospheres from three individual donors at day 7 and cultured for an additional 7-15 days (FIG. 7A).

AEC2s [1] = assay: AEC2/AEC1 marker immunostaining of mouse organoids (maintenance and differentiation)
Method: Serum free medium contained 10 μM SB431542 (Abcam, Cambridge, UK), 3 μM CHIR99021 (Tocris, Bristol, UK), 1 μM BIRB796 (Tocris, Bristol, UK), 5 μg/ml Heparin (Sigma-Aldrich, St. Louis, Mo.), 50 ng/ml human EGF (Gibco), 10 ng/ml mouse FGF10 (R&D systems. Minneapolis, Minn.), 10 μM Y27632 (Selleckchem, Houston, Tex.), Insulin-Transferrin-Selenium (Thermo, Waltham, Mass.), 1% Glutamax (Thermo, Waltham, Mass.), 2% B27 (Thermo, Waltham, Mass.), 1% N2 (Thermo, Waltham, Mass.), 15 mM HEPES (Thermo, Waltham, Mass.), 1.25 mM N-acetylcysteine (Sigma-Aldrich, St. Louis, Mo.) and 1% Anti-Anti (Thermo, Waltham, Mass.) in Advanced DMEM/F12 (Thermo, Waltham, Mass.). For Alveo-Expansion medium, 10 ng/ml mouse IL-1b (BioLegend, San Diego, Calif.), 10 ng/ml mouse TNFa (BioLegend, San Diego, Calif.) were added into serum free medium. For Alveo-Maintenance medium, 10 ng/ml mouse Noggin (Peprotech, Rocky Hill, N.J.) and 1 μM DMH-1 (Tocris, Bristol, UK.) were added into Alveo-Expansion medium. Alveo-Differentiation medium contained ITS, Glutamax, 5 μg/ml Heparin, 5 ng/ml human EGF, 1 μg/ml mouse FGF10, 10% fetal bovine serum and 1% Anti-Anti in Advanced DMEM/F12.
For differentiation, mouse alveolospheres were cultured in AMM medium for 10 days were switched to AT2-differentiation medium followed by culture for an additional 7 days, except where stated otherwise. […]

AEC2s [2] = assay: Feeder-free (no fibroblasts) mouse AEC2 organoid culture in serum free medium: CFE and organoid size; assay type: cell-based

With “Human IL-1β: human interleukin-1β tested in human alveolosphere culture” the “organoid numbers and the size (growth rate)” value (human alveolospheres) was “significantly enhanced”.

With “IL6: interleukin-6, 20 ng/mL supplement of serum-free differentiation medium” the “expression of AEC1 markers including AGER” value (AEC2s [1]; mouse AEC2s, 10 days maintenance medium, then serum-free differentiation medium + IL6 20 ng/mL for 10 days) was “strong expression”.

B1: IL1β: mouse interleukin-1β, cytokine added to serum free medium (protein, UniProt P10749 118-269, looked up)
Interleukin-1 beta: VPIRQLHYRLRDEQQKSLVLSDPYELKALHLNGQNINQQVIFSMSFVQGEPSNDKIPVALGLKGKNLYLSCVMKDGTPTLQLESVDPKQYPKKKMEKRFVFNKIEVKSKVEFESAEFPNWYISTSQAEHKPVFLGNNSGQDIIDFTMESVSS
B1 was tested, and the CFE (AEC2s [2]; IL1β removed from culture media on day-3, n=2) was 19.85%, the CFE (AEC2s [2]; IL1β removed from culture media on day-5, n=3, average±SEM) was 20.35%±0.30% and the CFE (AEC2s [2]; IL1β removed from culture media on day-7, n=3, average±SEM) was 19.33%±0.84%. The CFE (AEC2s [2]; continuous IL1β supplementation, n=3, average±SEM) was 20.91%±1.61%.

B2: BMP4: BMP4 ligand (protein, UniProt P12644 293-408, looked up)
Bone morphogenetic protein 4: SPKHHSQRARKKNKNCRRHSLYVDFSDVGWNDWIVAPPGYQAFYCHGDCPFPLADHLNSTNHAIVQTLVNSVNSSIPKACCVPTELSAISMLYLDEYDKVVLKNYQEMVVEGCGCR
For B2, the “complete differentiation of AEC2 to AEC1 cells” value (AEC2s [1]; organoids treated with BMP4 ligand) was “not observed”.
